# In patent US20230250176A1 (DRAGONFLY THERAPEUTICS, published 2023):
# T1: human NKG2D on cells (human, UniProt P26718 1-216)
# T1 construct: whole, on cells; also called NKG2D on KHYG-1 parental cells; NKG2D on CD8+ T cells and NK cells
# T1 sequence (looked up): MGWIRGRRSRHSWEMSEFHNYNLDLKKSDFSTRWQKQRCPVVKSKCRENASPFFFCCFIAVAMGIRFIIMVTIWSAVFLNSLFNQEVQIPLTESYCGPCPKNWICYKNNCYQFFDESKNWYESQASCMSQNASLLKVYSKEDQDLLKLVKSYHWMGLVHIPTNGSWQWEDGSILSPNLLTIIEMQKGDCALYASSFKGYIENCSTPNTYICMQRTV
# B1: panitumumab (antibody, IgG2, V domains shown)
# VH: QVQLQESGPGLVKPSETLSLTCTVSGGSVSSGDYYWTWIRQSPGKGLEWIGHIYYSGNTNYNPSLKSRLTISIDTSKTQFSLKLSSVTAADTAIYYCVRDRVTGAFDIWGQGTMVTVSS
# VL: DIQMTQSPSSLSASVGDRVTITCQASQDISNYLNWYQQKPGKAPKLLIYDASNLETGVPSRFSGSGSGTDFTFTISSLQPEDIATYFCQHFDHLPLAFGGGTKVEIK
# B2: TA99 (antibody, V domains shown)
# VH: EVQLQQSGAELVRPGALVKLSCKTSGFNIKDYFLHWVRQRPDQGLEWIGWINPDNGNTVYDPKFQGTASLTADTSSNTVYLQLSGLTSEDTAVYFCTRRDYTYEKAALDYWGQGASVIVSS
# VL: DIQMSQSPASLSASVGETVTITCRASGNIYNYLAWYQQKQGKSPHLLVYDAKTLADGVPSRFSGSGSGTQYSLKISSLQTEDSGNYYCQHFWSLPFTFGSGTKLEIK
# Legend:
# [1] = target: purified recombinant rat EGFR (rat, UniProt A0ABK0LZB0 35-651); assay: SPR (Biacore 8K), 37 C
# Method: (§1) Measurements were performed at physiological temperature of 37° C. using a Biacore8K SPR system.
# [2] = target: purified recombinant mouse EGFR (mouse, UniProt Q01279 25-647, limits assumed); assay: SPR (Biacore 8K), 37 C
# Method: as §1
# [3] = target: T1, human NKG2D on cells; assay: flow cytometry, AF647-conjugated test article on KHYG-1 parental cells (NKG2D+, CD16a-)
# [4] = target: T2, mouse Tyrp1 on B16F10 and CT26-Tyrp1 cells (mouse, UniProt P07147 25-537); assay: flow cytometry on B16F10 cells, anti-mouse IgG-Fc secondary, MFI minus background, 4-parameter fit
# T2 construct: whole, on cells
# [5] = target: T2, mouse Tyrp1 on B16F10 and CT26-Tyrp1 …; assay: flow cytometry on CT26-Tyrp1 cells, anti-mouse IgG-Fc secondary, MFI minus background, 4-parameter fit
Binder,binding result [1],binding result [2],binding result [3],EC50 [4],EC50 [5]
B1,no binding,no binding,no binding (tested: 800 nM),,
B2,,,,11 nM,14.6 nM
